Data as given in patent US20250361281A1, “AMYLIN RECEPTOR (hAMY3R) AGONISTS WITH IMPROVED CHEMICAL STABILITY” (GUBRA A/S, priority 2022, published 2025).
Starred links: 1 amine or outer side, 2 acyl side, 3 side chain; linkers in the order of their positions; H or OH if unused. Positions of bridges follow the written chain, without caps; N, C: chain ends. Non-standard residues stand in square brackets, D forms with d. No end group written: not given here. *: point of attachment. C20 diacid = O=C(O)CCCCCCCCCCCCCCCCCCC(=O)*; γGlu = O=C(O)[C@H](CCC(=O)[*:2])N[*:1]; Hyp = O=C(O)[C@@H]1C[C@@H](O)CN1

T1: human amylin receptor 3 (hAMY3R) (human, UniProt P30988 25-474; O60896 24-148)
T1 sequence (looked up) 1: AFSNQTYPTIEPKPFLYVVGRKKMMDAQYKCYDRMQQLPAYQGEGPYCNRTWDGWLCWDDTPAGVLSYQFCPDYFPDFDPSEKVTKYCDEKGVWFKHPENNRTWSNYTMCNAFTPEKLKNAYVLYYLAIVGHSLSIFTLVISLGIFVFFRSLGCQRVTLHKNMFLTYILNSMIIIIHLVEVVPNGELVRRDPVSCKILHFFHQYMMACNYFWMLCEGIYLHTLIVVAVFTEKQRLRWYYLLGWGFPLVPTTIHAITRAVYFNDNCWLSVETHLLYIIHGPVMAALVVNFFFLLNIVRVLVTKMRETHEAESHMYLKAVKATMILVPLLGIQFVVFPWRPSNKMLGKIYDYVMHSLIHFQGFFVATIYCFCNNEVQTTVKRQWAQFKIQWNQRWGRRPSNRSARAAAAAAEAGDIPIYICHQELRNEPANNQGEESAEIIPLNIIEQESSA
T1 sequence (looked up) 2: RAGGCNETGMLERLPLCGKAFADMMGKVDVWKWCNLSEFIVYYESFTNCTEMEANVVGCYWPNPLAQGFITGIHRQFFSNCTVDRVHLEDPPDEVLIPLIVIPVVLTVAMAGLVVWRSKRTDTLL

B1: human amylin hAMY1-37 (peptide)
peptide: KCNTATCATQRLANFLVHSSNNFGAILSSTNVGSNTY-NH2
modifications: disulfide 2-7
B2: reference polypeptide KCNTATCTVQRLAEQIAQFTDKDKDNVAPPTNVGSNG[Hyp] (SEQ ID NO: 3) (peptide)
peptide: {C20 diacid-γGlu}-KCNTATCTVQRLAEQIAQFTDKDKDNVAPPTNVGSNG[Hyp]
modifications: disulfide 2-7; also: C-terminal generally amidated (-CONH2) per the definitions
B3: polypeptide KCLTATCTVARLAEQIAQFTDKDKENVAPPTAVGSAG[Hyp] (SEQ ID NO: 4) (peptide)
peptide: {C20 diacid-γGlu}-KCLTATCTVARLAEQIAQFTDKDKENVAPPTAVGSAG[Hyp]
modifications: bridge 2-7 via ‑S‑CH2‑S‑; also: C-terminal generally amidated (-CONH2) per the definitions

Tests used:
[1] = pH 7, background statement; cited from earlier work
[2] = Physical stability of peptide analogues (Thioflavin T fibrillation); format: physicochemical; details: ThT fluorescence, 40° C., shaking, four days; pH 4 or pH 7 buffer
Protocol: General Protocols for Determination of Physical Stability of Peptide Analogues
Peptides were dissolved in buffers (50 mM sodium acetate at pH 4 or 50 mM sodium phosphate at pH 7) and incubated for one hour. The samples were then divided into two replicates of 80 μl in a black 384 well plate (μ-clear, Greiner Bio-One) and mixed with Thioflavin T (ThT) to a final concentration of 4 μM. The plate was sealed and placed in a plate reader (CLARIOstar, BMG) where the temperature was set at 40° C. during the course of the experiment. The samples were further stressed by shaking the plate at 700 rpm (linear) for five minutes before every measurement. The fluorescence was measured every 10 min for four days by exciting the ThT at 450 nm and measuring the emission at 480 nm. For each peptide, the ThT signal over time was smoothened using Local Polynomial Regression fitting (LOESS) as implemented in the statistical programming environment R. For the smoothened data, the maximum ThT signal was normalized in percent between the maximum ThT signal for hAMY and the buffer background.

[3] = target: T1, human amylin receptor 3 (hAMY3R); test: cell-based or functional assay
[4] = target: human adrenomedullin receptor 1 (hAM1R) (human, UniProt Q16602 23-461; O60895 43-175); test: cell-based or functional assay
Sequence of human adrenomedullin receptor 1 (hAM1R) (Q16602 23-461, chain 1 of 2): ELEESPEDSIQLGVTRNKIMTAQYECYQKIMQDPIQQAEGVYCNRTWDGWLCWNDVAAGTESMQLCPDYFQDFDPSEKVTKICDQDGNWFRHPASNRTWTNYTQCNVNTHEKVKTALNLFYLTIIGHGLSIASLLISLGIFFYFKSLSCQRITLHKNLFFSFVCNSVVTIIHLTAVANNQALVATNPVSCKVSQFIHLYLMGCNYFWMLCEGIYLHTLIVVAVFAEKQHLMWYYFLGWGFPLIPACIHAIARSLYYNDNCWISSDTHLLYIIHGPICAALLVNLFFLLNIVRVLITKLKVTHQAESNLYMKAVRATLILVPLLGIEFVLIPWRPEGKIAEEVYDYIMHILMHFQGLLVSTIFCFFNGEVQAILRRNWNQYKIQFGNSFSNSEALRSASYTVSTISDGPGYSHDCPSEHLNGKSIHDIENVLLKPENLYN
Sequence of human adrenomedullin receptor 1 (hAM1R) (O60895 43-175, chain 2 of 2): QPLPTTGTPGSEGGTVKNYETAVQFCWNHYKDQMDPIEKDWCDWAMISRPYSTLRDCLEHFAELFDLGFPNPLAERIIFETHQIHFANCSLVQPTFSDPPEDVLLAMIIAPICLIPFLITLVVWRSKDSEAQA

Row | Molecule | fibrillation at pH 7 [1] | Fibril formation [2] | hAMY3R EC50 (nM), cAMP accumulation [3] [nM] | hAM1R EC50 (nM), cAMP accumulation [4] [nM]
1 | CC[C@H](C)[C@H](NC(=O)[C@@H]1CCCN1C(=O)CNC(=O)[C@H](Cc1ccccc1)NC(=O)[C@H](CC(N)=O)NC(=O)[C@H](CC(N)=O)NC(=O)[C@H](CO)NC(=O)[C@H](CO)NC(=O)[C@H](Cc1c[nH]cn1)NC(=O)[C@@H](NC(=O)[C@H](CC(C)C)NC(=O)[C@H](Cc1ccccc1)NC(=O)[C@H](CC(N)=O)NC(=O)[C@H](C)NC(=O)[C@H](CC(C)C)NC(=O)[C@H](CCCNC(=N)N)NC(=O)[C@H](CCC(N)=O)NC(=O)[C@@H](NC(=O)[C@H](C)NC(=O)[C@@H]1CSSC[C@H](NC(=O)[C@@H](N)CCCCN)C(=O)N[C@@H](CC(N)=O)C(=O)N[C@@H]([C@@H](C)O)C(=O)N[C@@H](C)C(=O)N[C@@H]([C@@H](C)O)C(=O)N1)[C@@H](C)O)C(C)C)C(=O)N[C@@H](CC(C)C)C(=O)N1CCC[C@H]1C(=O)N1CCC[C@H]1C(=O)N[C@H](C(=O)N[C@@H](CC(N)=O)C(=O)N[C@H](C(=O)NCC(=O)N[C@@H](CO)C(=O)N[C@@H](CC(N)=O)C(=O)N[C@H](C(=O)N[C@@H](Cc1ccc(O)cc1)C(N)=O)[C@@H](C)O)C(C)C)[C@@H](C)O [Pramlintide] | fibrillates |  |  | 
2 | CC[C@H](C)[C@H](NC(=O)[C@H](CCC(N)=O)NC(=O)[C@H](Cc1c[nH]cn1)NC(=O)[C@H](C)NC(=O)[C@H](CC(C)C)NC(=O)[C@H](CCCCN)NC(=O)[C@H](CCC(N)=O)NC(=O)[C@@H](NC(=O)[C@@H](NC(=O)[C@@H]1CSSC[C@H](NC(=O)CN)C(=O)N[C@@H](CCCNC(=N)N)C(=O)N[C@@H](Cc2ccccc2)C(=O)NCC(=O)N[C@@H]([C@@H](C)O)C(=O)N1)[C@@H](C)O)C(C)C)C(=O)N[C@@H](Cc1ccc(O)cc1)C(=O)N[C@@H](CCC(N)=O)C(=O)N[C@@H](Cc1ccccc1)C(=O)N[C@H](C(=O)N[C@@H](CC(=O)O)C(=O)N[C@@H](CCCCN)C(=O)N[C@@H](CC(=O)O)C(=O)N[C@@H](CCCCN)C(=O)N[C@@H](CC(=O)O)C(=O)N[C@@H](CC(N)=O)C(=O)N[C@H](C(=O)N[C@@H](C)C(=O)N1CCC[C@H]1C(=O)N[C@@H](CCCNC(=N)N)C(=O)N[C@@H](CO)C(=O)N[C@@H](CCCCN)C(=O)N[C@H](C(=O)N[C@@H](CO)C(=O)N1CCC[C@H]1C(=O)N[C@@H](CCC(N)=O)C(=O)NCC(=O)N[C@@H](Cc1ccc(O)cc1)C(N)=O)[C@@H](C)CC)C(C)C)[C@@H](C)O [SEQ ID NO: 1] | does not fibrillate | No |  | 
3 | CC[C@H](C)[C@H](NC(=O)[C@H](C)NC(=O)CNC(=O)[C@H](Cc1ccccc1)NC(=O)[C@H](CC(N)=O)NC(=O)[C@H](CC(N)=O)NC(=O)[C@H](CO)NC(=O)[C@H](CO)NC(=O)[C@H](Cc1c[nH]cn1)NC(=O)[C@@H](NC(=O)[C@H](CC(C)C)NC(=O)[C@H](Cc1ccccc1)NC(=O)[C@H](CC(N)=O)NC(=O)[C@H](C)NC(=O)[C@H](CC(C)C)NC(=O)[C@H](CCCNC(=N)N)NC(=O)[C@H](CCC(N)=O)NC(=O)[C@@H](NC(=O)[C@H](C)NC(=O)[C@@H]1CSSC[C@H](NC(=O)[C@@H](N)CCCCN)C(=O)N[C@@H](CC(N)=O)C(=O)N[C@@H]([C@@H](C)O)C(=O)N[C@@H](C)C(=O)N[C@@H]([C@@H](C)O)C(=O)N1)[C@@H](C)O)C(C)C)C(=O)N[C@@H](CC(C)C)C(=O)N[C@@H](CO)C(=O)N[C@@H](CO)C(=O)N[C@H](C(=O)N[C@@H](CC(N)=O)C(=O)N[C@H](C(=O)NCC(=O)N[C@@H](CO)C(=O)N[C@@H](CC(N)=O)C(=O)N[C@H](C(=O)N[C@@H](Cc1ccc(O)cc1)C(N)=O)[C@@H](C)O)C(C)C)[C@@H](C)O [SEQ ID NO: 2] |  | Yes |  | 
4 | B1 |  |  | 0.01 | > 5000
5 | B2 |  |  | 0.014 | > 5000
6 | B3 |  |  | 0.009 | > 5000
